# Laboratory results reported in patent US12459974B2, “Bicyclic peptide ligands specific for Nectin-4” (priority 2018, dated 2025).
# pKd, pKi: −log10 of the molar value. Where two headings read alike, the source gives them in different places. *1 amine or outer side, *2 acyl side, *3 side chain or, on linkers, in order; H or OH if unused. Where a SMILES comes first, the peptide text is derived from it. Bridges are numbered along the chain shown (N, C = ends). Roman numbers before positions name the chains, in order. [ ]: non-standard residue; d: D form. The star is where a group is joined. TATA = O=C(CC[*:1])N1CN(C(=O)CC[*:2])CN(C(=O)CC[*:3])C1; Dolaproine = CO[C@@H]([C@@H]1CCCN1)[C@@H](C)C(=O)O; Dil = CC[C@H](C)[C@H](NC)[C@@H](CC(=O)O)OC; 1Nal = N[C@@H](Cc1cccc2ccccc12)C(=O)O; X3 = O=C(CCCC(=O)[*:2])NCCC(=O)[*:1]; PABC = O=C(OCc1ccc(N[*:1])cc1)[*:2]; X4 = C[C@@H](N*)[C@@H](O)c1ccccc1; Cya = N[C@@H](CS(=O)(=O)O)C(=O)O; Hyp = O=C(O)[C@@H]1C[C@@H](O)CN1; hArg = N=C(N)NCCCC[C@H](N)C(=O)O; Cit = NC(=O)NCCC[C@H](N)C(=O)O; NMeV = CN[C@H](C(=O)O)C(C)C; βAla = NCCC(=O)O; Sar = CNCC(=O)O
# Legend:
# [1] = tested on: NCI-H292 xenograft; experiment: Example 1: in vivo efficacy in NCI-H292 xenograft (NSCLC model) in BALB/c nude mice; set-up: species or system Mus Musculus; conditions: 5 mg/kg
# Method: (§1) The major endpoint was to see if the tumor growth could be delayed or mice could be cured. Tumor volume was measured three times weekly in two dimensions using a caliper, and the volume was expressed in mm^3 using the formula: V=0.5 a×b^2 where a and b are the long and short diameters of the tumor, respectively. The tumor size was then used for calculations of T/C value. The T/C value (in percent) is an indication of antitumor effectiveness; T and C are the mean volumes of the treated and control groups, respectively, on a given day. TGI was calculated for each group using the formula: TGI (%)=[1−(Ti−T0)/(Vi−V0)]×100; Ti is the average tumor volume of a treatment group on a given day, T0 is the average tumor volume of the treatment group on the day of treatment start, Vi is the average tumor volume of the vehicle control group on the same day with Ti, and V0 is the average tumor volume of the vehicle group on the day of treatment start.
# (§2) A one-way ANOVA was performed to compare tumor volume among groups, and when a significant F-statistics (a ratio of treatment variance to the error variance) was obtained, comparisons between groups were carried out with Games-Howell test. All data were analyzed using GraphPad Prism 5.0. P<0.05 was considered to be statistically significant.
# The NCI-H292 tumor cells will be maintained in medium supplemented with 10% heat inactivated fetal bovine serum at 37° C. in an atmosphere of 5% CO2 in air. The tumor cells will be routinely subcultured twice weekly. The cells growing in an exponential growth phase will be harvested and counted for tumor inoculation.
# Each mouse will be inoculated subcutaneously at the right flank with NCI-H292 tumor cells (10×10^6) in 0.2 ml of PBS for tumor development. The animals will be randomized and treatment will be started when the average tumor volume reaches approximately 158-406 mm^3.
# [2] = biological target: T1, human Nectin-4 (Homo sapiens, UniProt Q96NY8); experiment: Nectin-4 competition binding assay (fluorescence polarisation); conditions: competition with fluorescent peptide SEQ ID NO: 217; read-out: Ki
# T1 sequence (Q96NY8 32-510): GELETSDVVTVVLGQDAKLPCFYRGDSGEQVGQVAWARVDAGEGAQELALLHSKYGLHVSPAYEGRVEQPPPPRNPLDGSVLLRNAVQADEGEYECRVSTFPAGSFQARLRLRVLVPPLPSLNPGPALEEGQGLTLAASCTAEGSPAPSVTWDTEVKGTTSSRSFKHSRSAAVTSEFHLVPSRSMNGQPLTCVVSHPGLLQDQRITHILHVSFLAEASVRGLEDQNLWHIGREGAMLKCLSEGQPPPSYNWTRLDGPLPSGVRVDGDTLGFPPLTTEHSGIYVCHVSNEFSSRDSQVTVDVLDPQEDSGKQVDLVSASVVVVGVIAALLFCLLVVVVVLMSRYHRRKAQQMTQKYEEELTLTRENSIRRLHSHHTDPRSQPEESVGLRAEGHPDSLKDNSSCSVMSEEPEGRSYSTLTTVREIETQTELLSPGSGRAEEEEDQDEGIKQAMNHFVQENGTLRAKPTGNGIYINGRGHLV
# Method in brief: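 Serially diluted (1 in 2) peptides, max 5% DMSO, were mixed with human Nectin-4 and a fluorescent tracer peptide; FP read as in the direct binding assay. Ki from fitting mP values to a cubic competition equation using tracer concentration, tracer Kd and Nectin-4 concentration.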
# [3] = tested on: MDA-MB-468 xenograft; experiment: Example 9.4: in vivo efficacy in MDA-MB-468 xenograft in Balb/c nude mice; conditions: 5 mg/kg
# Method: as §1, §2
# • Species: Mus Musculus • Strain: Balb/c nude • Age: 6-8 weeks • Sex: female • Body weight: 18-22 g • Number of animals: 41 mice plus spare 3.1.2.
# The tumor cells were maintained in Leibovitz's L-15 medium supplemented with 10% heat inactivated fetal bovine serum at 37° C. in an atmosphere of 5% CO2 in air. The tumor cells were routinely subcultured twice weekly. The cells growing in an exponential growth phase were harvested and counted for tumor inoculation.
# 41 animals were randomized when the average tumor volume reached 196 mm^3.
# [4] = tested on: MDA-MB-468 xenograft; experiment: Example 4: in vivo efficacy in MDA-MB-468 xenograft (breast cancer model) in Balb/c nude mice; set-up: species or system Mus Musculus; conditions: 5 mg/kg
# [5] = tested on: NCI-H292 xenograft; experiment: Example 9.5: in vivo efficacy in NCI-H292 xenograft in Balb/c nude mice; set-up: species or system Mus Musculus; conditions: 5 mg/kg; day 9; average
# [6] = tested on: HCT116 xenograft; experiment: Example 9.2: in vivo efficacy in HCT116 xenograft in Balb/c nude mice; set-up: species or system Mus Musculus; conditions: 3 mg/kg biw
# [7] = tested on: NCI-H526 xenograft; experiment: Example 9.6: in vivo efficacy in NCI-H526 xenograft in Balb/c nude mice
# Method: as §1, §2
# • Species: Mus Musculus • Strain: Balb/c nude • Age: 6-8 weeks • Sex: female • Body weight: 18-22 g • Number of animals: 21 mice plus spare 3.1.2.
# The NCI-H526 cells were maintained in medium supplemented with 10% heat inactivated fetal bovine serum at 37° C. in an atmosphere of 5% CO2 in air. The tumor cells were routinely subcultured twice weekly. The cells growing in an exponential growth phase were harvested and counted for tumor inoculation.
# Each mouse was inoculated subcutaneously at the right flank with NCI-H526 tumor cells (5.0×10^6 in 0.2 ml of PBS for tumor development. 21 animals were randomized when the average tumor volume reached 181 mm^3. The test article administration and the animal numbers in each group were shown in the experimental design table.
# Tumor growth inhibition rate for test articles in the NCI-H526 xenograft model was calculated based on tumor volume measurements at day 14 after the start of the treatment.
# [8] = tested on: HT-1376 xenograft; experiment: Example 2: in vivo efficacy in HT-1376 xenograft (bladder cancer model) in CB17-SCID mice; conditions: 3 mg/kg
# Method: as §1
# A one-way ANOVA was performed to compare tumor volume among groups, and when a significant F-statistics (a ratio of treatment variance to the error variance) was obtained, comparisons between groups were carried out with Games-Howell test. […] P<0.05 was considered to be statistically significant.
# • Species: Mus Musculus • Strain: CB17-SCID • Age: 6-8 weeks • Sex: female • Body weight: 18-22 g • Number of animals: 21-41 mice plus spare • Animal supplier: Shanghai LC Laboratory Animal Co., LTD.
# The HT-1376 tumor cells were maintained in vitro as a monolayer culture in EMEM medium supplemented with 10% heat inactivated fetal bovine serum at 37° C. in an atmosphere of 5% CO2 in air. The tumor cells were routinely subcultured twice weekly by trypsin-EDTA treatment.
# Each mouse was inoculated subcutaneously at the right flank with HT-1376 tumor cells (5×10^6) in 0.2 ml of PBS with matrigel (1:1) for tumor development. Animals were randomized when the average tumor volume reached 153-164 mm^3.
# Tumor growth inhibition rate for Test articles in the HT-1376 xenograft model was calculated based on tumor volume measurements at day 21 after the start of treatment.
# [9] = biological target: T2, human Nectin-4 (Homo sapiens, UniProt Q96NY8); experiment: Nectin-4 Biacore SPR binding assay
# T2 sequence (Q96NY8 32-349): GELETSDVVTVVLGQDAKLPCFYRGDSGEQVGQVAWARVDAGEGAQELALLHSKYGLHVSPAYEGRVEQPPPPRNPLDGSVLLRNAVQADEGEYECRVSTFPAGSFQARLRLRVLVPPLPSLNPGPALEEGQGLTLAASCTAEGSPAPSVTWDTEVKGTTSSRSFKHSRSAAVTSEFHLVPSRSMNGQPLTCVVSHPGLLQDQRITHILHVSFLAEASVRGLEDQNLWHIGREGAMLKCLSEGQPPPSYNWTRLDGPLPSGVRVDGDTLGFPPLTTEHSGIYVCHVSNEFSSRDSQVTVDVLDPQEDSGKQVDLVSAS
# Method: Biacore experiments were performed to determine ka (M^−1 s^−1), kd (s^−1), KD (nM) values of monomeric peptides binding to human Necin-4 protein (obtained from Charles River).
# Human Nectin-4 (residues Gly32-Ser349; NCBI RefSeq: NP_112178.2) with a gp67 signal sequence and C-terminal FLAG tag was cloned into pFastbac-1 and baculovirus made using standard Bac-to-Bac™ protocols (Life Technologies). Sf21 cells at 1×10^6 ml^−1 in Excell-420 medium (Sigma) at 27° C. were infected at an MOI of 2 with a P1 virus stock and the supernatant harvested at 72 hours. […] The protein was eluted with 100 μg/ml FLAG peptide. The eluted protein was concentrated to 2 ml and loaded onto an S-200 Superdex column (GE Healthcare) in PBS at 1 ml/min. 2 ml fractions were collected and the fractions containing Nectin-4 protein were concentrated to 16 mg/ml.
# The protein was extensively desalted to remove uncoupled biotin using spin columns into PBS.
# For analysis of peptide binding, a Biacore 3000 instrument was used utilising a CM5 chip (GE Healthcare). Streptavidin was immobilized on the chip using standard amine-coupling chemistry at 25° C. with HBS-N (10 mM HEPES, 0.15 M NaCl, pH 7.4) as the running buffer. Briefly, the carboxymethyl dextran surface was activated with a 7 minute injection of a 1:1 ratio of 0.4 M 1-ethyl-3-(3-dimethylaminopropyl) carbodiimide hydrochloride (EDC)/0.1 M N-hydroxy succinimide (NHS) at a flow rate of 10 μl/min. For capture of streptavidin, the protein was diluted to 0.2 mg/ml in 10 mM sodium acetate (pH 4.5) and captured by injecting 120 μl of streptavidin onto the activated chip surface. Residual activated groups were blocked with a 7 minute injection of 1 M ethanolamine (pH 8.5) and biotinylated Nectin-4 captured to a level of 1,200-1,800 RU. Buffer was changed to PBS/0.05% Tween 20 and a dilution series of the peptides was prepared in this buffer with a final DMSO concentration of 0.5%. The top peptide concentration was 100 nM with 6 further 2-fold dilutions. The SPR analysis was run at 25° C. at a flow rate of 50 μl/min with 60 seconds association and dissociation between 400 and 1,200 seconds depending upon the individual peptide. Data were corrected for DMSO excluded volume effects. All data were double-referenced for blank injections and reference surface using standard processing procedures and data processing and kinetic fitting were performed using Scrubber software, version 2.0c (BioLogic Software). Data were fitted using simple 1:1 binding model allowing for mass transport effects where appropriate.
# [10] = tested on: MDA-MB-468 cell line; experiment: Example 11: HCS assay, Nectin-4 BDC binding study; assay type: cell-based
# Method: HCS assay was used in Nectin-4 BDC binding study. Cells were incubated with test agent and then washed. Detection was by a fluorescent antibody to MMAE.
smiles,measurement,setting,value
"CC[C@H](C)[C@@H]([C@@H](CC(=O)N1CCC[C@H]1[C@H](OC)[C@@H](C)C(=O)N[C@H](C)[C@@H](O)c1ccccc1)OC)N(C)C(=O)[C@@H](NC(=O)[C@H](C(C)C)N(C)C(=O)OCc1ccc(NC(=O)[C@H](CCCNC(N)=O)NC(=O)[C@@H](NC(=O)CCCC(=O)NCCC(=O)N(C)CC(=O)N(C)CC(=O)N(C)CC(=O)N(C)CC(=O)N(C)CC(=O)N[C@H]2CSCCC(=O)N3CN4CN(C3)C(=O)CCSC[C@H](NC(=O)[C@@H](CC(=O)O)NC(=O)[C@H](Cc3ccccc3)NC(=O)[C@@H]3CCCN3C2=O)C(=O)N[C@@H](CCSC)C(=O)N[C@@H](CCCCNC(=N)N)C(=O)N[C@@H](CC(N)=O)C(=O)N[C@@H](Cc2c[nH]c3ccccc23)C(=O)N[C@@H](CO)C(=O)N[C@@H](Cc2c[nH]c3ccccc23)C(=O)N2CCC[C@H]2C(=O)N[C@@H]([C@@H](C)CC)C(=O)N[C@@H](Cc2c[nH]c3ccccc23)C(=O)N[C@H](C(N)=O)CSCCC4=O)C(C)C)cc1)C(C)C [BCY7683, MMAE-PABC-Cit-Val-Glutaryl-BCY7556] (I: [Sar][Sar][Sar][Sar][Sar]CPF[dD]CM[hArg]NWSWPIWC-NH2 / II: V[Cit][PABC][NMeV]V[Dil][Dolaproine]-X4; linker I:6-I:10-I:20 via TATA; linker I:N-II:N via X3)",bodyweight (in words),[1],severe bodyweight loss
"CSCC[C@@H]1NC(=O)[C@@H]2CSCCC(=O)N3CN(CN(C3)C(=O)CCSC[C@H](NC(C)=O)C(=O)N3CCC[C@H]3C(=O)N[C@@H](Cc3cccc4ccccc34)C(=O)N[C@H](CCCNC(=N)N)C(=O)N2)C(=O)CCSC[C@@H](C(N)=O)NC(=O)[C@H](Cc2c[nH]c3ccccc23)NC(=O)[C@@H]2C[C@@H](O)CN2C(=O)[C@@H]2CCCN2C(=O)[C@H](CO)NC(=O)[C@H](CO)NC(=O)[C@H](Cc2c[nH]c3ccccc23)NC(=O)[C@H](CC(=O)O)NC(=O)[C@H](CCCCNC(=N)N)NC1=O [BCY8191, Ac-(SEQ ID NO: 195)] (Ac-CP[1Nal][dR]CM[hArg]DWSSP[Hyp]WC-NH2; linker 1-5-15 via TATA; C-terminus assumed)",pKi,[2],8.35
"CC[C@H](C)[C@@H]([C@@H](CC(=O)N1CCC[C@H]1[C@H](OC)[C@@H](C)C(=O)N[C@H](C)[C@@H](O)c1ccccc1)OC)N(C)C(=O)[C@@H](NC(=O)[C@H](C(C)C)N(C)C(=O)OCc1ccc(NC(=O)[C@H](CCCNC(N)=O)NC(=O)[C@@H](NC(=O)CCCC(=O)NCCC(=O)N(C)CC(=O)N(C)CC(=O)N(C)CC(=O)N(C)CC(=O)N(C)CC(=O)N(C)CC(=O)N(C)CC(=O)N(C)CC(=O)N(C)CC(=O)N(C)CC(=O)N[C@H]2CSCCC(=O)N3CN4CN(C3)C(=O)CCSC[C@H](NC(=O)[C@@H](CCCNC(=N)N)NC(=O)[C@H](Cc3cccc5ccccc35)NC(=O)[C@@H]3CCCN3C2=O)C(=O)N[C@@H](CC(C)C)C(=O)N[C@@H](CCCCNC(=N)N)C(=O)N[C@@H](Cc2c[nH]cn2)C(=O)N[C@@H](Cc2c[nH]c3ccccc23)C(=O)N[C@@H](CO)C(=O)N[C@@H]([C@@H](C)O)C(=O)N2CCC[C@H]2C(=O)N2C[C@H](O)C[C@H]2C(=O)N[C@@H](Cc2c[nH]c3ccccc23)C(=O)N[C@H](C(N)=O)CSCCC4=O)C(C)C)cc1)C(C)C [BCY8253, MMAE-PABC-Cit-Val-Glutaryl-BCY8231] (I: [Sar][Sar][Sar][Sar][Sar][Sar][Sar][Sar][Sar][Sar]CP[1Nal][dR]CL[hArg]HWSTP[Hyp]WC-NH2 / II: V[Cit][PABC][NMeV]V[Dil][Dolaproine]-X4; linker I:11-I:15-I:25 via TATA; linker I:N-II:N via X3)",animal body weight (in words),[3],severe animal body weight loss
same,death,[3],found dead on day 20
same,animal body weight (in words),[4],severe animal body weight loss
same,death,[4],found dead on day 20
same,bodyweight loss,[5],> 15%
same,bodyweight loss,[6],15%
same,bodyweight loss,"[1]; day 9, average",> 15%
"CC[C@H](C)[C@@H]([C@@H](CC(=O)N1CCC[C@H]1[C@H](OC)[C@@H](C)C(=O)N[C@H](C)[C@@H](O)c1ccccc1)OC)N(C)C(=O)[C@@H](NC(=O)[C@H](C(C)C)N(C)C(=O)OCc1ccc(NC(=O)[C@H](CCCNC(N)=O)NC(=O)[C@@H](NC(=O)CCCC(=O)NCCC(=O)N(C)CC(=O)N(C)CC(=O)N(C)CC(=O)N(C)CC(=O)N(C)CC(=O)N(C)CC(=O)N(C)CC(=O)N(C)CC(=O)N(C)CC(=O)N(C)CC(=O)N[C@H]2CSCCC(=O)N3CN4CN(C3)C(=O)CCSC[C@H](NC(=O)[C@@H](CCCNC(=N)N)NC(=O)[C@H](Cc3cccc5ccccc35)NC(=O)[C@@H]3CCCN3C2=O)C(=O)N[C@@H](CCSC)C(=O)N[C@@H](CCCCNC(=N)N)C(=O)N[C@@H](CC(=O)O)C(=O)N[C@@H](Cc2c[nH]c3ccccc23)C(=O)N[C@@H](CO)C(=O)N[C@@H]([C@@H](C)O)C(=O)N2CCC[C@H]2C(=O)N2C[C@H](O)C[C@H]2C(=O)N[C@@H](Cc2c[nH]c3ccccc23)C(=O)N[C@H](C(N)=O)CSCCC4=O)C(C)C)cc1)C(C)C [BCY8255, MMAE-PABC-Cit-Val-Glutaryl-BCY8235] (I: [Sar][Sar][Sar][Sar][Sar][Sar][Sar][Sar][Sar][Sar]CP[1Nal][dR]CM[hArg]DWSTP[Hyp]WC-NH2 / II: V[Cit][PABC][NMeV]V[Dil][Dolaproine]-X4; linker I:11-I:15-I:25 via TATA; linker I:N-II:N via X3)",animal body weight (in words),[3],severe animal body weight loss
same,animal body weight (in words),[4],severe animal body weight loss
same,animal bodyweight loss,[7]; 3 mg/kg biw,over 15%
same,animal bodyweight loss,[7]; 5 mg/kg qw,over 15%
same,bodyweight loss,[6],15%
same,death,[8],found dead on day 16
"CSCC[C@@H]1NC(=O)[C@@H]2CSCCC(=O)N3CN(CN(C3)C(=O)CCSC[C@H](NC(=O)CN(C)C(=O)CN(C)C(=O)CN(C)C(=O)CN(C)C(=O)CN(C)C(=O)CN(C)C(=O)CN(C)C(=O)CN(C)C(=O)CN(C)C(=O)CN(C)C(=O)CCNC(C)=O)C(=O)N3CCC[C@H]3C(=O)N[C@@H](Cc3cccc4ccccc34)C(=O)N[C@H](CC(=O)O)C(=O)N2)C(=O)CCSC[C@@H](C(N)=O)NC(=O)[C@H](Cc2c[nH]c3ccccc23)NC(=O)[C@@H]2C[C@@H](O)CN2C(=O)[C@@H]2CCCN2C(=O)[C@H]([C@@H](C)O)NC(=O)[C@H](CO)NC(=O)[C@H](Cc2c[nH]c3ccccc23)NC(=O)[C@H](CC(=O)O)NC(=O)[C@H](CS(=O)(=O)O)NC1=O [BCY8277, Ac-[B-Ala][Sar10]-(SEQ ID NO: 178)] (Ac-[βAla][Sar][Sar][Sar][Sar][Sar][Sar][Sar][Sar][Sar][Sar]CP[1Nal][dD]CM[Cya]DWSTP[Hyp]WC-NH2; linker 12-16-26 via TATA; C-terminus assumed)",pKd,[9],8.22
"CC[C@H](C)[C@@H]([C@@H](CC(=O)N1CCC[C@H]1[C@H](OC)[C@@H](C)C(=O)N[C@H](C)[C@@H](O)c1ccccc1)OC)N(C)C(=O)[C@@H](NC(=O)[C@@H](NC)C(C)C)C(C)C [MMAE, Monomethyl auristatin E, reference compound] (H-[NMeV]V[Dil][Dolaproine]-X4)",binding affinity on MDA-MB-468 cell line (in words),[10],almost no detectable binding affinity
same,Max fluorescent intensity,"[10]; MDA-MB-468 cell line, fluorescent antibody to MMAE",2.95
same,pKd,"[10]; MDA-MB-468 cell line, historical data, read-out: Historical Kd",< 5.00
same,pKd,"[10]; MDA-MB-468 cell line, read-out: Kd",< 5.00
same,retention on the cells (in words),[10]; detection by a fluorescent antibody to MMAE,minimal retention
